Results published in patent US20260193342A1 (ZOETIS SERVICES, published 2026).
Positions count from the first letter of the chain named. In names and notes the source's numbering stands.

B1: mAb1, caninized anti-IL31 antibody 34D03, canine IgGA, WT (antibody)
heavy: EVQLVESGGDLVKPGGSLRLSCVASGFTFSNYGMSWVRQAPGKGLQWVATISYGGSYTYYPDNIKGRFTISRDNAKNTLYLQMNSLRAEDTAMYYCVRGYGYDTMDYWGQGTLVTVSSASTTAPSVFPLAPSCGSTSGSTVALACLVSGYFPEPVTVSWNSGSLTSGVHTFPSVLQSSGLHSLSSMVTVPSSRWPSETFTCNVVHPASNTKVDKPVFNECRCTDTPPCPVPEPLGGPSVLIFPPKPKDILRITRTPEVTCVVLDLGREDPEVQISWFVDGKEVHTAKTQSREQQFNGTYRVVSVLPIEHQDWLTGKEFKCRVNHIDLPSPIERTISKARGRAHKPSVYVLPPSPKELSSSDTVSITCLIKDFYPPDIDVEWQSNGQQEPERKHRMTPPQLDEDGSYFLYSKLSVDKSRWQQGDPFTCAVMHETLQNHYTDLSLSHSPGK
VL: EIVMTQSPASLSLSQEEKVTITCKASQSVSFAGTGLMHWYQQKPGQAPKLLIYRASNLEAGVPSRFSGSGSGTDFSFTISSLEPEDVAVYYCQQSREYPWTFGQGTKLEIK
notes: VH/VL: the caninized 34D03 entries of the listing; also called ID No. 1
B2: mAb2 of Table 4A, caninized anti-NGF antibody ZTS-841, canine IgGA, WT (antibody)
heavy: EVQLVESGGDLVKPGGSLRLSCVASGFTFSSHGMHWVRQSPGKGLQWVAVINSGGSSTYYTDAVKGRFTISRDNAKNTVYLQMNSLRAEDTAMYYCAKESVGGWEQLVGPHFDYWGQGTLVIVSSASTTAPSVFPLAPSCGSTSGSTVALACLVSGYFPEPVTVSWNSGSLTSGVHTFPSVLQSSGLHSLSSMVTVPSSRWPSETFTCNVVHPASNTKVDKPVFNECRCTDTPPCPVPEPLGGPSVLIFPPKPKDILRITRTPEVTCVVLDLGREDPEVQISWFVDGKEVHTAKTQSREQQFNGTYRVVSVLPIEHQDWLTGKEFKCRVNHIDLPSPIERTISKARGRAHKPSVYVLPPSPKELSSSDTVSITCLIKDFYPPDIDVEWQSNGQQEPERKHRMTPPQLDEDGSYFLYSKLSVDKSRWQQGDPFTCAVMHETLQNHYTDLSLSHSPGK
VL: QSVLTQPTSVSGSLGQRVTISCSGSTNNIGILGASWYQLFPGKAPKLLVYGNGNRPSGVPDRFSGADSGDSVTLTITGLQAEDEADYYCQSFDTTLGAHVFGGGTHLTVL
notes: also called ID No. 39
B3: mAb1, caninized anti-IL31 antibody 34D03, canine IgGA, N434F (antibody)
chain 1: B1 heavy with N436F
chain 2: EIVMTQSPASLSLSQEEKVTITCKASQSVSFAGTGLMHWYQQKPGQAPKLLIYRASNLEAGVPSRFSGSGSGTDFSFTISSLEPEDVAVYYCQQSREYPWTFGQGTKLEIKRNDAQPAVYLFQPSPDQLHTGSASVVCLLNSFYPKDINVKWKVDGVIQDTGIQESVTEQDKDSTYSLSSTLTMSSTEYLSHELYSCEITHKSLPSTLIKSFQRSEC
B4: mAb2 of Table 4A, caninized anti-NGF antibody ZTS-841, canine IgGA, N434F (antibody)
heavy: B2 heavy with N443F
VL: B2 VL
notes: also called ID No. 40
B5: mAb1, caninized anti-IL31 antibody 34D03, canine IgGA, N434H (antibody)
chain 1: B1 heavy with N436H
chain 2: B3 chain 2
B6: mAb2 of Table 4A, caninized anti-NGF antibody ZTS-841, canine IgGA, N434H (antibody)
heavy: B2 heavy with N443H
VL: B2 VL
notes: also called ID No. 41
B7: mAb1, caninized anti-IL31 antibody 34D03, canine IgGA, N434R (antibody)
chain 1: B1 heavy with N436R
chain 2: B3 chain 2
B8: mAb2 of Table 4A, caninized anti-NGF antibody ZTS-841, canine IgGA, N434R (antibody)
heavy: B2 heavy with N443R
VL: B2 VL
notes: also called ID No. 42
B9: mAb2 of Table 4A, caninized anti-NGF antibody ZTS-841, canine IgGA, N434S (antibody)
heavy: B2 heavy with N443S
VL: B2 VL
notes: also called ID No. 43
B10: mAb1, caninized anti-IL31 antibody 34D03, canine IgGA, N434W (antibody)
heavy: B1 heavy with N436W
light: B3 chain 2
notes: VH/VL: the caninized 34D03 entries of the listing; also called ID No. 6; copies: 2 + 2

The binders below were run against canine FcRn complex (FcRn-α subunit and β-microglobulin) (canine, UniProt A0A8I3PFR8 25-347, biotin on the BAP tag by BirA (Example 5 only)) (assay: SPR (Biacore), biotinylated FcRn on SA chip, IgG flowed, pH 6, 15 C).
Chain of canine FcRn complex (FcRn-α subunit and β-microglobulin) (A0A8I3PFR8 entry or part of it, one chain of several): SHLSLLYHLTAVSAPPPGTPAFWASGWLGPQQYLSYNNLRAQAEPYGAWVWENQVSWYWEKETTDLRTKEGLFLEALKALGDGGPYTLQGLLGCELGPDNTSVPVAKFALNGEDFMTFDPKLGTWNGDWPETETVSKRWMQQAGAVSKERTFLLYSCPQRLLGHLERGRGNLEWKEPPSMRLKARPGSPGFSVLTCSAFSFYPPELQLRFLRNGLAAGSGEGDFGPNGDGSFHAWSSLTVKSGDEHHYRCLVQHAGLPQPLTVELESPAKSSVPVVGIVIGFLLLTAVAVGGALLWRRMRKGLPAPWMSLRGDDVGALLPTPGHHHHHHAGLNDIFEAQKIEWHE

Row | Binder | Kd
1 | B1 | 79.9 nM
2 | B2 | 95.5 nM
3 | B3 | 12.7 nM
4 | B4 | 9.81 nM
5 | B5 | 12.3 nM
6 | B6 | 10.4 nM
7 | B7 | 43.8 nM
8 | B8 | 15.1 nM
9 | B9 | 147 nM
10 | B10 | 19.9 nM
